# Source: IntAct's records for PubMed 30241482
# B1: Protein ripply3 (Homo sapiens), P57055 (parent)
# chain: MEPEAAAGARKARGRGCHCPGDAPWRPPPPRGPESPAPWRPWIQTPGDAELTRTGRPLEPRADQHTFGSKGAFGFQHPVRVYLPMSKRQEYLRSSGEQVLASFPVQATIDFYDDESTESASEAEEPEEGPPPLHLLPQEVGGRQENGPGGKGRDQGINQGQRSSGGGDHWGEGPLPQGVSSRGGKCSSSK
# partner: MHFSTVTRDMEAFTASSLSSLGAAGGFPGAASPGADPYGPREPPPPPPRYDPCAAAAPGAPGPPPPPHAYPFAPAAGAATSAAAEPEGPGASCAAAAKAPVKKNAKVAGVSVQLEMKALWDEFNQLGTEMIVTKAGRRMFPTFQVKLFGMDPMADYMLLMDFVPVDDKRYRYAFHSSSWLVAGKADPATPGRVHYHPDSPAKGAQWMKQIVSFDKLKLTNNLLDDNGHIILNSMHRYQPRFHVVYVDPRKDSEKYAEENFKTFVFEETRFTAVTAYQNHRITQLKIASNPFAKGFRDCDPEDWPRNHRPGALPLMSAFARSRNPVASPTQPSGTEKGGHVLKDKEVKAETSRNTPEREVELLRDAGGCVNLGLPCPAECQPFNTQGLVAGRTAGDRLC
# Variants of: B1
# Settings: with tbx1_human TBX1, O43435
row,Variant,effect of a mutation on the interaction
1,MEPEAAAGARKARGRGCHCPGDAPWRPPPLRGPESPAPWRPWIQTPGDAELTRTGRPLEPRADQHTFGSKGAFGFQHPVRVYLPMSKRQEYLRSSGEQVLASFPVQATIDFYDDESTESASEAEEPEEGPPPLHLLPQEVGGRQENGPGGKGRDQGINQGQRSSGGGDHWGEGPLPQGVSSRGGKCSSSK,with no effect
2,MEPEAAAGARKARGRGCHCPGDAPWRPPPPRGPESPAPWRPWIQTPGDAELSRTGRPLEPRADQHTFGSKGAFGFQHPVRVYLPMSKRQEYLRSSGEQVLASFPVQATIDFYDDESTESASEAEEPEEGPPPLHLLPQEVGGRQENGPGGKGRDQGINQGQRSSGGGDHWGEGPLPQGVSSRGGKCSSSK,decreasing interaction strength

# Now from value to variant:
row,effect of a mutation on the interaction,Variant
1,with no effect,MEPEAAAGARKARGRGCHCPGDAPWRPPPPRGPESPAPWRPWIQTPGDAELTRTGRPLEPRADQHTFGSKGAFGFQHPVRVYLPMSKRQEYLRSSGEQVLASFPVQATIDFYDDESTESASEAEEPEEGPPPLHLLPQEVGGRQENGPGGKGRDQGINQGQRSSGGGDHWGEGPLPQGDSSRGGKCSSSK
2,with no effect,MEPEAAAGARKARGRGCHCPGDAPWRPPPPRGPESPAPWRPWIQTPGDAELTRTGRPLEPRADQHTFGSKGAFGFQHPVRVYLPMSKRQEYLRSSGEQVLASFPVQATIDFYNDESTESASEAEEPEEGPPPLHLLPQEVGGRQENGPGGKGRDQGINQGQRSSGGGDHWGEGPLPQGVSSRGGKCSSSK
